From publication PMC6224477

Legend:
[1] = biological target: ribosomes (mono- and poly-ribosomes) of HEK293 cells (human (endogenous in HEK293))
[2] = biological target: di-ribosome translation complex stalled on a poly(A)-containing transcript in rabbit reticulocyte lysate (rabbit (endogenous in reticulocyte lysate)); assay: pull-down + co-sedimentation; poly(A)-containing transcript translated in RRL supplemented with FLAG-tagged ZNF598; translation complexes affinity purified via the Twin-Strep tag of the nascent chain (StrepTactin, RNC buffer: 50 mM HEPES pH 7.6, 100 mM KOAc, 5 mM Mg(OAc)2, biotin elution), then sucrose gradient; immunoblot for ZNF598, uL2, eS24

ubiquitinated eS10 (immunoblot) in HEK293 cells pre-treated 15 min with low concentrations of anisomycin, emetine or didemnin B [1] [%]	percent of ZNF598 co-fractionating with ribosomes [2] [%]	Binder
10	–	endogenous ZNF598 (enzyme) MAAAGGAEGRRAALEAAAAAAPERGGGSCVLCCGDLEATALGRCDHPVCYRCSTKMRVLCEQRYCAVCREELRQVVFGKKLPAFATIPIHQLQHEKKYDIYFADGKVYALYRQLLQHECPRCPELPPFSLFGDLEQHMRRQHELFCCRLCLQHLQIFTYERKWYSRKDLARHRMQGDPDDTSHRGHPLCKFCDERYLDNDELLKHLRRDHYFCHFCDSDGAQDYYSDYAYLREHFREKHFLCEEGRCSTEQFTHAFRTEIDLKAHRTACHSRSRAEARQNRHIDLQFSYAPRHSRRNEGVVGGEDYEEVDRYSRQGRVARAGTRGAQQSRRGSWRYKREEEDREVAAAVRASVAAQQQEEARRSEDQEEGGRPKKEEAAARGPEDPRGPRRSPRTQGEGPGPKETSTNGPVSQEAFSVTGPAAPGCVGVPGALPPPSPKLKDEDFPSLSASTSSSCSTAATPGPVGLALPYAIPARGRSAFQEEDFPALVSSVPKPGTAPTSLVSAWNSSSSSKKVAQPPLSAQATGSGQPTRKAGKGSRGGRKGGPPFTQEEEEDGGPALQELLSTRPTGSVSSTLGLASIQPSKVGKKKKVGSEKPGTTLPQPPPATCPPGALQAPEAPASRAEGPVAVVVNGHTEGPAPARSAPKEPPGLPRPLGSFPCPTPQEDFPALGGPCPPRMPPPPGFSAVVLLKGTPPPPPPGLVPPISKPPPGFSGLLPSPHPACVPSPATTTTTKAPRLLPAPRAYLVPENFRERNLQLIQSIRDFLQSDEARFSEFKSHSGEFRQGLISAAQYYKSCRDLLGENFQKVFNELLVLLPDTAKQQELLSAHTDFCNREKPLSTKSKKNKKSAWQATTQQAGLDCRVCPTCQQVLAHGDASSHQALHAARDDDFPSLQAIARIIT
–	70 to 80	ZNF598-TEV-3xFlag (human) (enzyme) MAAAGGAEGRRAALEAAAAAAPERGGGSCVLCCGDLEATALGRCDHPVCYRCSTKMRVLCEQRYCAVCREELRQVVFGKKLPAFATIPIHQLQHEKKYDIYFADGKVYALYRQLLQHECPRCPELPPFSLFGDLEQHMRRQHELFCCRLCLQHLQIFTYERKWYSRKDLARHRMQGDPDDTSHRGHPLCKFCDERYLDNDELLKHLRRDHYFCHFCDSDGAQDYYSDYAYLREHFREKHFLCEEGRCSTEQFTHAFRTEIDLKAHRTACHSRSRAEARQNRHIDLQFSYAPRHSRRNEGVVGGEDYEEVDRYSRQGRVARAGTRGAQQSRRGSWRYKREEEDREVAAAVRASVAAQQQEEARRSEDQEEGGRPKKEEAAARGPEDPRGPRRSPRTQGEGPGPKETSTNGPVSQEAFSVTGPAAPGCVGVPGALPPPSPKLKDEDFPSLSASTSSSCSTAATPGPVGLALPYAIPARGRSAFQEEDFPALVSSVPKPGTAPTSLVSAWNSSSSSKKVAQPPLSAQATGSGQPTRKAGKGSRGGRKGGPPFTQEEEEDGGPALQELLSTRPTGSVSSTLGLASIQPSKVGKKKKVGSEKPGTTLPQPPPATCPPGALQAPEAPASRAEGPVAVVVNGHTEGPAPARSAPKEPPGLPRPLGSFPCPTPQEDFPALGGPCPPRMPPPPGFSAVVLLKGTPPPPPPGLVPPISKPPPGFSGLLPSPHPACVPSPATTTTTKAPRLLPAPRAYLVPENFRERNLQLIQSIRDFLQSDEARFSEFKSHSGEFRQGLISAAQYYKSCRDLLGENFQKVFNELLVLLPDTAKQQELLSAHTDFCNREKPLSTKSKKNKKSAWQATTQQAGLDCRVCPTCQQVLAHGDASSHQALHAARDDDFPSLQAIARIIT
